Reference: paper PMC10372118

Biological target: truncated human ACE2 (residues 19-613 with a C-terminal AviTag and 6xHis-tag), biotinylated (human) (UniProt Q9BYF1)
Experiment: BLI

**Q.** Which t1/2 does the source give for “SARS-CoV-2 ancestral receptor-binding domain (RBD), recombinant (from UniProt P0DTC2) (domain or fragment)” here?
**A.** 1.39 min
